Substrate in data set [1]: [H][C@@]12CN(C)CC[C@]1(c1ccccc1)C2
Description: (§1) Activity of 50 nM human recombinant MAOB after 30 mins.

Substrate in data set [2]: [H][C@]12CN(C)CC[C@@]1(c1ccccc1)C2
The description is as §1.

B1: Amine oxidase [flavin-containing] B (Homo sapiens) (protein)
chain: MSNKCDVVVVGGGISGMAAAKLLHDSGLNVVVLEARDRVGGRTYTLRNQKVKYVDLGGSYVGPTQNRILRLAKELGLETYKVNEVERLIHHVKGKSYPFRGPFPPVWNPITYLDHNNFWRTMDDMGREIPSDAPWKAPLAEEWDNMTMKELLDKLCWTESAKQLATLFVNLCVTAETHEVSALWFLWYVKQCGGTTRIISTTNGGQERKFVGGSGQVSERIMDLLGDRVKLERPVIYIDQTRENVLVETLNHEMYEAKYVISAIPPTLGMKIHFNPPLPMMRNQMITRVPLGSVIKCIVYYKEPFWRKKDYCGTMIIDGEEAPVAYTLDDTKPEGNYAAIMGFILAHKARKLARLTKEERLKKLCELYAKVLGSLEALEPVHYEEKNWCEEQYSGGCYTTYFPPGILTQYGRVLRQPVDRIYFAGTETATHWSGYMEGAVEAGERAAREILHAMGKIPEDEIWQSEPESVDVPAQPITTTFLERHLPSVPGLLRLIGLTTIFSATALGFLAHKRGLLVRV
As a reminder, the Km is the substrate concentration at which the rate is half of its maximum. Take B1: the Km in data set [1] and in data set [2] was 221 µM each time.

For the origin of these results see ChEMBL document CHEMBL1142441, “Stereochemical studies on the novel monoamine oxidase B substrates (1R,6S)- and (1S,6R)-3-methyl-6-phenyl-3-aza-bicyclo[4.1.0]heptane” (Bioorg Med Chem, 2008).
